Results as given in US20250084179A1 (Xencor, published 2025).
Residue numbers refer to the chain shown, from its start.

T1: Cyno TROP2 (Macaca fascicularis, UniProt A0A2K5UE71)
T1 construct: Construct used in the measurement is not described; also called cynomolgus TROP2
T1 sequence (antigen): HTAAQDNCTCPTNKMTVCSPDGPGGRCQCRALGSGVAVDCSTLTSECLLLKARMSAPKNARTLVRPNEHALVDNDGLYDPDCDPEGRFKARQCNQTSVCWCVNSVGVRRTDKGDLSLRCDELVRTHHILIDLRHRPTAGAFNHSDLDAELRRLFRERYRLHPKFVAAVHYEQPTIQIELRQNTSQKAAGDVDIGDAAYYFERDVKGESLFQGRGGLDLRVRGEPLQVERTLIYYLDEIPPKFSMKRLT

T2: TROP2 (UniProt P09758 27-274, limits assumed)
T2 construct: also called tumor-associated calcium signal transducer 2; TACSTD2
T2 sequence (looked up): T1 sequence (antigen) with V36M, E46K, N67S, V204I

B1: 1A7_H1.106_IGKV1-39_L1 (Fab, V domains shown)
VH: EVQLLESGGGLVQPGGSLRLSCAASGFTFSSYYMSWVRQAPGKGLEWVSTISERGDSTYYADSVKGRFTISRDNSKNTLYLQMNSLRAEDTAVYYCAKSGPGLRQVGFDYWGQGTLVTVSS
VL: not shown
notes: also called 1A7[CD28]_H1.106 paired with IGKV1-39 germline VL (1F11-1A3.315 L1)
B2: 1A7_H1.113_IGKV1-39_L1 (Fab, V domains shown)
VH: B1 VH with G55T
VL: not shown
notes: also called 1A7[CD28]_H1.113 paired with IGKV1-39 germline VL (1F11-1A3.315 L1)
B3: 1A7_H1.111_IGKV1-39_L1 (Fab, V domains shown)
VH: B1 VH with G55S
VL: not shown
notes: also called 1A7[CD28]_H1.111 paired with IGKV1-39 germline VL (1F11-1A3.315 L1)
B4: 1A7_H1.107_IGKV1-39_L1 (Fab, V domains shown)
VH: B1 VH with R54S, G55S, S57V
VL: not shown
notes: also called 1A7[CD28]_H1.107 paired with IGKV1-39 germline VL (1F11-1A3.315 L1)
B5: 1F11-1A3.315[Trop2]_H1.1_L1 (antibody, V domains shown)
VH: QVQLVQSGAEVKKPGASVKVSCKASGYTLTRYYMHWVRQAPGQGLEWMGIINPGGGSTGYAQKFQGRVTMTRDTSTSTVYMELSSLRSEDTAVYYCARDDVVAADVFDYWGQGTLVTVSS
VL: not shown
B6: 1F11-1A3.315[Trop2]_H1.30_L1 (antibody, V domains shown)
VH: B5 VH with M34V, N52E, G59L, V102T
VL: not shown
B7: 1F11-1A3.315[Trop2]_H1.6_L1 (antibody, V domains shown)
VH: B5 VH with N52E
VL: not shown
B8: 1F11-1A3.315[Trop2]_H1.7_L1 (antibody, V domains shown)
VH: B5 VH with G59T
VL: not shown
B9: 1F11-1A3.315[Trop2]_H1.15_L1 (antibody, V domains shown)
VH: B5 VH with L29F, V102T, A103K
VL: not shown
B10: 1F11-1A3.315[Trop2]_H1.12_L1 (antibody, V domains shown)
VH: B5 VH with L29F, N52E, A103K
VL: not shown
B11: 1F11-1A3.315[Trop2]_H1.27_L1 (antibody, V domains shown)
VH: B5 VH with N52E, G59D, V102T
VL: not shown
B12: 1F11-1A3.315[Trop2]_H1.14_L1 (antibody, V domains shown)
VH: B5 VH with L29F, G59T, A103K
VL: not shown
B13: 1F11-1A3.315[Trop2]_H1.23_L1 (antibody, V domains shown)
VH: B5 VH with L29F, M34V
VL: not shown
B14: 1F11-1A3.315[Trop2]_H1.24_L1 (antibody, V domains shown)
VH: B5 VH with L29F, G59D
VL: not shown
B15: 1F11-1A3.315[Trop2]_H1.16_L1 (antibody, V domains shown)
VH: B5 VH with N52E, V102T
VL: not shown
B16: 1F11-1A3.315[Trop2]_H1.3_L1 (antibody, V domains shown)
VH: B5 VH with L29F, G59T
VL: not shown
B17: 1F11-1A3.315[Trop2]_H1.20_L1 (antibody, V domains shown)
VH: B5 VH with N52E, G59S, V102T
VL: not shown
B18: 1F11-1A3.315[Trop2]_H1.26_L1 (antibody, V domains shown)
VH: B5 VH with L29F, V102M
VL: not shown
B19: 1F11-1A3.315[Trop2]_H1.8_L1 (antibody, V domains shown)
VH: B5 VH with V102T
VL: not shown
B20: 1F11-1A3.315[Trop2]_H1.21_L1 (antibody, V domains shown)
VH: B5 VH with N52E, G59S, A103K
VL: not shown
B21: 1F11-1A3.315[Trop2]_H1.17_L1 (antibody, V domains shown)
VH: B5 VH with N52E, A103K
VL: not shown
B22: 1F11-1A3.315[Trop2]_H1.11_L1 (antibody, V domains shown)
VH: B5 VH with L29F, N52E, V102T
VL: not shown
B23: 1F11-1A3.315[Trop2]_H1.29_L1 (antibody, V domains shown)
VH: B5 VH with M34V, N52E, G59D, V102T
VL: not shown
B24: 1F11-1A3.315[Trop2]_H1.31_L1 (antibody, V domains shown)
VH: B5 VH with M34V, N52E, G59D, A103K
VL: not shown
B25: 1F11-1A3.315[Trop2]_H1.22_L1 (antibody, V domains shown)
VH: B5 VH with N52E, G59S, V102T, A103K
VL: not shown
B26: 1F11-1A3.315[Trop2]_H1.18_L1 (antibody, V domains shown)
VH: B5 VH with N52E, G59T, V102T
VL: not shown
B27: 1F11-1A3.315[Trop2]_H1.25_L1 (antibody, V domains shown)
VH: B5 VH with L29F, G59L
VL: not shown
B28: 1F11-1A3.315[Trop2]_H1.4_L1 (antibody, V domains shown)
VH: B5 VH with L29F, V102T
VL: not shown
B29: 1F11-1A3.315[Trop2]_H1.5_L1 (antibody, V domains shown)
VH: B5 VH with L29F, A103K
VL: not shown
B30: 1F11-1A3.315[Trop2]_H1.2_L1 (antibody, V domains shown)
VH: B5 VH with L29F, N52E
VL: not shown
B31: 1F11-1A3.315[Trop2]_H1.9_L1 (antibody, V domains shown)
VH: B5 VH with A103K
VL: not shown
B32: 1F11-1A3.315[Trop2]_H1.28_L1 (antibody, V domains shown)
VH: B5 VH with N52E, G59L, V102T
VL: not shown
B33: 1F11-1A3.315[Trop2]_H1.13_L1 (antibody, V domains shown)
VH: B5 VH with L29F, G59T, V102T
VL: not shown

molecular target: T3, human CD28 (human, UniProt P10747 19-152, limits assumed); assay: Octet, monovalent KD of Fab
T3 construct: also called Cluster of Differentiation 28; Tp44

| Kd [nM] | Binder |
| --- | --- |
| 43 | B1 |
| 29 | B2 |
| 20 | B3 |
| 57 | B4 |

molecular target: T1, Cyno TROP2; assay: not stated; bivalent format

| Kd [nM] | koff [s⁻¹] | kon [M⁻¹ s⁻¹] | Binder |
| --- | --- | --- | --- |
| 2.7 | 0.00073 | 270000 | B5 |
| 3.7 | 0.00055 | 150000 | B6 |
| 1.5 | 0.00042 | 290000 | B7 |
| 2.8 | 0.00077 | 280000 | B8 |
| 5.1 | 0.0016 | 310000 | B9 |
| 1.1 | 0.00038 | 360000 | B10 |
| 1.2 | 0.00047 | 390000 | B11 |
| 3.7 | 0.0013 | 360000 | B12 |
| 11 | 0.0026 | 230000 | B13 |
| 11 | 0.0026 | 250000 | B14 |
| 1.5 | 0.00047 | 310000 | B15 |
| 8.6 | 0.002 | 230000 | B16 |
| 1.7 | 0.00059 | 340000 | B17 |
| 6.2 | 0.0015 | 250000 | B18 |
| 3.1 | 0.00077 | 250000 | B19 |
| 0.81 | 0.00031 | 390000 | B20 |
| 0.81 | 0.00028 | 350000 | B21 |
| 2.6 | 0.00079 | 300000 | B22 |
| 2.1 | 0.00038 | 190000 | B23 |
| 0.48 | 0.00014 | 300000 | B24 |
| 0.7 | 0.00028 | 400000 | B25 |
| 0.93 | 0.00034 | 370000 | B26 |
| 14 | 0.0027 | 190000 | B27 |
| 9.4 | 0.0021 | 220000 | B28 |
| 4.5 | 0.0014 | 320000 | B29 |
| 2.5 | 0.00067 | 270000 | B30 |
| 1.4 | 0.00046 | 320000 | B31 |
| 2.1 | 0.00055 | 270000 | B32 |
| 2.8 | 0.00084 | 300000 | B33 |

molecular target: T2, TROP2; assay: not stated; bivalent format

| Kd [nM] | koff [s⁻¹] | kon [M⁻¹ s⁻¹] | Binder |
| --- | --- | --- | --- |
| 2 | 0.00048 | 240000 | B5 |
| 2.2 | 0.00037 | 170000 | B6 |
| 0.77 | 0.00025 | 320000 | B7 |
| 1.9 | 0.00053 | 280000 | B8 |
| 4.1 | 0.00091 | 230000 | B9 |
| 1.3 | 0.00033 | 270000 | B10 |
| 0.93 | 0.00028 | 330000 | B11 |
| 2.6 | 0.00077 | 290000 | B12 |
| 7.2 | 0.0012 | 170000 | B13 |
| 5.7 | 0.0013 | 240000 | B14 |
| 1.1 | 0.00029 | 270000 | B15 |
| 6 | 0.0012 | 200000 | B16 |
| 1.1 | 0.00035 | 320000 | B17 |
| 4.6 | 0.00088 | 190000 | B18 |
| 2.7 | 0.0006 | 230000 | B19 |
| 1.5 | 0.00032 | 210000 | B20 |
| 0.62 | 0.00017 | 270000 | B21 |
| 1.5 | 0.00051 | 340000 | B22 |
| 2.1 | 0.00029 | 150000 | B23 |
| 0.43 | 0.00013 | 300000 | B24 |
| 0.55 | 0.00021 | 380000 | B25 |
| 0.66 | 0.0002 | 320000 | B26 |
| 8.5 | 0.0014 | 170000 | B27 |
| 6.7 | 0.0011 | 180000 | B28 |
| 3.4 | 0.00081 | 240000 | B29 |
| 2 | 0.00047 | 250000 | B30 |
| 1.7 | 0.0004 | 240000 | B31 |
| 1.9 | 0.00036 | 210000 | B32 |
| 1.7 | 0.00051 | 330000 | B33 |
